In test [1] the target is transferrin. The experiment in a line: peptide microarray, rank by score; no organic prewash.
Test [2] concerns the target transferrin. The test can be described thus: peptide microarray, rank by score; with organic prewash.
The target in test [3] is Tumor Necrosis Factor-alpha (TNF-α). The test can be described thus: SPR screen at 50 µM peptide, Biacore A100. (In SPR one partner is held on a chip, and binding of the other changes the refractive index at the surface.)
For test [4] the target is unchanged. The test can be described thus: SPR equilibrium; against the TNF1 lead.
The target is the same in test [5]. The experiment in a line: SPR equilibrium, Biacore A100, TNF-α captured on chip.
Test [6] has as its target transferrin. The experiment in a line: SPR steady state, Biacore T100, transferrin immobilised.
The target in test [7] is Tumor Necrosis Factor-alpha (TNF-α). The test can be described thus: from SPR dissociation constants.
Test [8] addresses transferrin. The test can be described thus: SPR kinetics, transferrin immobilised.
For test [9], the target named is transferrin. The experiment in a line: peptide microarray of about 10,000 peptides, rank by score (555 nm intensity squared over 647 nm intensity); no organic prewash.
Test [10] concerns the target transferrin. The experiment in a line: against the TRF26 lead.
Test [11] addresses transferrin. The test can be described thus: affinity characterization of the peptide; method not named.
Test [12] addresses transferrin. Described as above. This is another data set of the same source.
Test [13] concerns the target transferrin. The experiment in a line: SPR steady state affinity model, Biacore T100, transferrin immobilised (9758 RU).
Test [14] has as its target transferrin. The experiment in a line: SPR steady state.
In test [15] the target is Tumor Necrosis Factor-alpha (TNF-α). The experiment in a line: SPR kinetic fits of sensorgrams.
For test [16] the target is unchanged. The experiment in a line: fluorescence anisotropy. On the technique in general: In fluorescence polarisation assays a small probe gives low polarisation when free and higher when bound to something large.
Test [17] has the same target. The experiment in a line: SPR kinetic fits of several sensorgrams.

Where no end group is shown, it is not given here.

Sequence of Tumor Necrosis Factor-alpha (TNF-α) (P01375 77-233): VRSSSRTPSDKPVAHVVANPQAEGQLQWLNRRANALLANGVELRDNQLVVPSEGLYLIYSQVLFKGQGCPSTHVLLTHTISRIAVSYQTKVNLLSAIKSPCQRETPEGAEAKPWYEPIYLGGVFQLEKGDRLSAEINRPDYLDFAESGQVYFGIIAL
T100 sequence (P02787 20-698): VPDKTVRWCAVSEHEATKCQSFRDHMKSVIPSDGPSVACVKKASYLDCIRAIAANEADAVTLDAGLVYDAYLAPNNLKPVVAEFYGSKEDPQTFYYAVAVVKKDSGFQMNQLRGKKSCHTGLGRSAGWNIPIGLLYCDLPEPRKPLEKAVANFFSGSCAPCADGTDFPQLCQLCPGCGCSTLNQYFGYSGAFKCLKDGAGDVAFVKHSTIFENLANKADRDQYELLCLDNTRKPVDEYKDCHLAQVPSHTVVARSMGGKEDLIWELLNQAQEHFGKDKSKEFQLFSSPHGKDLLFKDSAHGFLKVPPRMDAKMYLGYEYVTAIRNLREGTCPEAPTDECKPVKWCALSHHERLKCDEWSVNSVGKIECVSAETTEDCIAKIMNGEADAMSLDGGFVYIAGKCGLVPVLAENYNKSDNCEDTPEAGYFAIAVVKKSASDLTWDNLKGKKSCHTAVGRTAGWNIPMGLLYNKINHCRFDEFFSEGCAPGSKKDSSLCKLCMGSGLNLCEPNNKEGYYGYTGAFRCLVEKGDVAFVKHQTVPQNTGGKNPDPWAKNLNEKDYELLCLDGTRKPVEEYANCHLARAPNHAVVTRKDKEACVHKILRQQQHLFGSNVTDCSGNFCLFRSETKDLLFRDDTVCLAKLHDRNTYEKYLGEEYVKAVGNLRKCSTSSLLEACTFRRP

LDPLFNTSIMVNWHRWMGSC [TRF27] yielded a Rank - non-prewash in [1] of 1290 rank. In test [2], this molecule displayed a Rank -- prewash of 3320 rank.

For the molecule FERDPLMMPWKFLQSRQGSC (modifications not checked) [TNF1 S11K point-mutant], in [3], the fold enhancement in SPR binding response relative to TNF1 is over 15 fold. In test [4], this molecule came in with a Component Binding ΔG Contribution of -0.82 kcal/mol and a Kd Fold-Change Relative to Lead of 3.9 fold. Moreover, in test [5], the Binding ΔG is -6.03 kcal/mol and the dissociation constant Kd (usually the concentration at which binding is half-saturated) stood at 40 µM.

In [1], SVKPWRPLLTGNRWLNSGSC [TRF24] yielded a Rank - non-prewash of 71 rank. Moreover, in test [2], the Rank -- prewash was 958 rank. This molecule also yielded a Kd in [6] of 50 µM.

FERDYLKMPWSFLQSRQGSC (modifications not checked) [TNF1 P5Y+M7K double mutant] yielded a Kd Fold-Change Relative to Lead in [4] of 5.8 fold. In test [5], this molecule showed a Binding ΔG (observed) of -6.24 kcal/mol and a Kd of 27 µM.

For FERDPLKMPWSFLQSRQGSC (modifications not checked) [TNF1 M7K point-mutant], the fold enhancement in SPR binding response relative to TNF1 in test [3] was over 15 fold. In test [4], the Component Binding ΔG Contribution was -0.72 kcal/mol and the Kd Fold-Change Relative to Lead came to 2.8 fold. In test [5], this molecule registered a Binding ΔG of -5.93 kcal/mol and an equilibrium dissociation constant (Kd) of 57 µM.

FERSYLMMPWKFLQSRQGSC (modifications not checked) [TNF1 D4S+P5Y+S11K triple mutant] gave a Kd Fold-Change Relative to Lead in test [4] of 23 fold. In [7], this molecule returned a difference in observed binding energy against the P5Y+S11K mutant of -0.72 kcal/mol. In test [5], this molecule gave a Binding ΔG (observed) of -7.03 kcal/mol and a Kd of 7 µM.

Regarding FERDYLMMPWKFLQSRQGSC (modifications not checked) [TNF1 P5Y+S11K double mutant], the Kd Fold-Change Relative to Lead in [4] was 6.6 fold. Besides, in test [5], the Binding ΔG (observed) was -6.63 kcal/mol and the Kd was 24 µM.

B1: synbody comprising TRF-26 and TRF-23 (Example 9) (designed binder)
peptide 1: AHKVVPQRQIRHAYNRYGSG
peptide 2: FRGWAHIFFGPHVIYRGGSG
modifications: not fully specified (bridges); also: both C-termini joined to the alpha and epsilon amines of a lysine linker
B1 displayed an equilibrium dissociation constant (Kd) in test [8] of 150 nM.

FERYPLMMPWKFLQSRQGSC (modifications not checked) [TNF1 D4Y+S11K double mutant] returned a Kd Fold-Change Relative to Lead in test [4] of 17 fold. In [5], this molecule gave a Binding ΔG (observed) of -6.67 kcal/mol and a Kd of 9.3 µM.

In [2], KEDNPGYSSEQDYNKLDGSC [TRF19] gave a Rank -- prewash of 9600 rank. The same molecule had a Kd in test [6] of 150 µM. The molecule also had a Rank - non-prewash in [9] of 5010 rank.

FERYPLKMPWSFLQSRQGSC (modifications not checked) [TNF1 D4Y+M7K double mutant] gave a Kd Fold-Change Relative to Lead in test [4] of 9.4 fold. In test [5], this molecule displayed a Binding ΔG (observed) of -6.54 kcal/mol and a Kd of 17 µM.

In turn, FERSYLKMPWSFLQSRQGSC (modifications not checked) [TNF1 D4S+P5Y+M7K triple mutant] came in with a Kd Fold-Change Relative to Lead in test [4] of 11 fold. In test [5], this molecule had a Binding ΔG (observed) of -6.63 kcal/mol and a Kd of 14 µM.

APYAPQQIHYWSTLGFKGSC [TRF25] came in with a Rank - non-prewash in test [1] of 736 rank. The Rank -- prewash in test [2] stood at 603 rank. In test [6], this molecule registered a Kd of 60 µM.

With AHKVVPQRQIRFAYNRYGSC [TRF26 H12F point-mutant], in [10], the Component Binding ΔG Contribution was -1.29 kcal/mol and the Kd Fold-Change Relative to Lead came to 8.8 fold. In [11], this molecule yielded a Kd of 9.8 µM. In [12], this molecule yielded a Binding ΔG of -6.85 kcal/mol and a Kd of 9.7 µM.

As to AHKVVPQRQMRHAYSRYGSC [TBPM023], the dissociation constant Kd in test [13] was 11.6 µM. In test [14], this molecule returned a fold improvement of affinity against the original peptide TRF26 of over 10 fold.

AHKVVYQRQIRHAYNRYGSC [TRF26 P6Y point-mutant]: in test [10], the Component Binding ΔG Contribution was -1.37 kcal/mol and the Kd Fold-Change Relative to Lead amounted to 10 fold. Further, in [12], the Binding ΔG was -6.93 kcal/mol and the dissociation constant (Kd) came out at 8.6 µM.

Turning to AHKVVYQRQIRFAYNRYGSC [TRF26 P6Y+H12F double mutant], in test [10], the Kd Fold-Change Relative to Lead stood at 190 fold. In [12], this molecule yielded a Binding ΔG (observed) of -8.68 kcal/mol and a Kd of 0.5 µM.

AHKVVPQRQIRHAYNRYGSC [TRF26] returned a Rank - non-prewash in test [1] of 596 rank. Moreover, the Rank -- prewash in test [2] was 436 rank. The molecule also displayed a Kd in test [6] of 100 µM. Further, in test [12], the Binding ΔG is -5.56 kcal/mol and the Kd worked out at 85 µM.

On to FERYPLMMPWSFLQSRQGSC (modifications not checked) [TNF1 D4Y point-mutant], for which the fold enhancement in SPR binding response relative to TNF1 in test [3] is over 15 fold. For the same molecule, in [4], the Component Binding ΔG Contribution was -0.74 kcal/mol and the Kd Fold-Change Relative to Lead is 3.6 fold. Further, in [5], the Binding ΔG is -5.95 kcal/mol and the equilibrium dissociation constant (Kd) came to 44 µM.

For the molecule HAYKGPGDMRRFNHSGMGSC [TRF22], the Rank - non-prewash in test [1] was determined as 711 rank. For the same molecule, in test [2], the Rank -- prewash is 61 rank.

QYHHFMNLKRQGRAQAYGSC [TRF21] showed a Rank - non-prewash in test [1] of 84 rank. Besides, the Rank -- prewash in test [2] stood at 5 rank. In addition, the Kd in [6] amounted to 60 µM.

For FERSYLKMPWKFLQSRQGSC (modifications not checked) [TNF1-opt (D4S+P5Y+M7K+S11K quadruple mutant of TNF1)], the Kd Fold-Change Relative to Lead in test [4] came out at 100 fold. In test [7], this molecule registered a difference in observed binding energy against the D4S+P5Y+S11K mutant of -0.94 kcal/mol, a difference in observed binding energy against the P5Y+M7K mutant of -1.73 kcal/mol and a difference in observed binding energy against the P5Y+S11K mutant of -1.66 kcal/mol. For the same molecule, in test [15], the off-rate constant (koff) (as a rule, the first-order rate constant of dissociation) came to 0.2 s⁻¹. In [16], this molecule showed a Kd of 1100 nM. In [5], this molecule gave a Binding ΔG (observed) of -7.97 kcal/mol and a dissociation constant Kd of 1.6 µM. For the same molecule, the Kd in [17] was determined as 700 nM.

FRGWAHIFFGPHVIYRGGSC [TRF23]: the Rank - non-prewash in test [1] came to 2720 rank. The molecule further showed a Rank -- prewash in [2] of 2090 rank. Besides, the Kd in [6] stood at 50 µM.

In the case of GHKVVPQRQIRHAYNRYGSC [TBPL005], the Kd in test [13] is 150 µM.

In the case of FERDYLMMPWSFLQSRQGSC (modifications not checked) [TNF1 P5Y point-mutant], in test [3], the fold enhancement in SPR binding response relative to TNF1 is over 15 fold. In [4], the Component Binding ΔG Contribution was -0.58 kcal/mol and the Kd Fold-Change Relative to Lead came to 2.7 fold. In test [5], this molecule came in with a Binding ΔG of -5.79 kcal/mol and an equilibrium dissociation constant (Kd) of 58 µM.

GHKVVPQRQMRHAYNRNGSC [TBPL025] displayed a Kd in [13] of 150 µM.

GQTQFAMHRFQQWYKIKGSC [TRF20] returned a Rank - non-prewash in test [1] of 18 rank. Also, in [2], the Rank -- prewash amounted to 289 rank.

The record behind these values is patent publication US20120065123A1, “Synthetic Antibodies” (priority 2009, published 2012).
